Measurements as given in the supplement of paper PMC10567573.

B1: DYRK1B (parent)
chain: KKVLNHGYDDDNHDYIVRSGERWL

Variants of: B1
Assay: protein stability index of a GFP-peptide fusion (GPS, HEK-293T) (PSI 1-6); higher = more stable
Conditions: c terminus: a fixed tail appended
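Also: lentivirally expressed fusions sorted by FACS into six bins by GFP to DsRed ratio, PSI derived from sequencing read proportions per bin multiplied by bin number.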

Q: With KKVLNHGYDDWNHDYIVRSGERWL [D11W] as the variant, how does the protein stability index read?
A: 2.02

Q: For KKVLNHGYDNDNHDYIVRSGERWL [D10N], which protein stability index is on record?
A: 2.48

Q: With KKVLNHGYDADNHDYIVRSGERWL [D10A] as the variant, how does the protein stability index read?
A: 3.02

Q: For KKVLNHGYDLDNHDYIVRSGERWL [D10L], which protein stability index is on record?
A: 2.43

Q: For KKVLNHGYDFDNHDYIVRSGERWL [D10F], which protein stability index is on record?
A: 1.83

Q: Which protein stability index does the source give for KKVLNHGYDWDNHDYIVRSGERWL [D10W] here?
A: 2.04

Q: Which protein stability index does the source give for KKVLNHGYDPDNHDYIVRSGERWL [D10P] here?
A: 2.81

Q: For KKVLNHGYDGDNHDYIVRSGERWL [D10G], which protein stability index is on record?
A: 3.46

Q: With KKVLNHGYDMDNHDYIVRSGERWL [D10M] as the variant, how does the protein stability index read?
A: 2.96

Q: For KKVLNHGYDVDNHDYIVRSGERWL [D10V], which protein stability index is on record?
A: 2.44

Q: With KKVLNHGYDYDNHDYIVRSGERWL [D10Y] as the variant, how does the protein stability index read?
A: 3.06

Q: Which protein stability index does the source give for KKVLNHGYDRDNHDYIVRSGERWL [D10R] here?
A: 2.82

Q: For KKVLNHGYDKDNHDYIVRSGERWL [D10K], which protein stability index is on record?
A: 3.16

Q: For KKVLNHGYDSDNHDYIVRSGERWL [D10S], which protein stability index is on record?
A: 2.72

Q: Which protein stability index does the source give for KKVLNHGYDQDNHDYIVRSGERWL [D10Q] here?
A: 2.99

Q: For KKVLNHGYDEDNHDYIVRSGERWL [D10E], which protein stability index is on record?
A: 2.95

Q: Which protein stability index does the source give for KKVLNHGYDTDNHDYIVRSGERWL [D10T] here?
A: 3

Q: For KKVLNHGYDCDNHDYIVRSGERWL [D10C], which protein stability index is on record?
A: 2.52

Q: With KKVLNHGYDIDNHDYIVRSGERWL [D10I] as the variant, how does the protein stability index read?
A: 2.3

Q: With KKVLNHGYDHDNHDYIVRSGERWL [D10H] as the variant, how does the protein stability index read?
A: 2.75

Q: For KKVLNHGYDDDNHDYEVRSGERWL [I16E], which protein stability index is on record?
A: 4.17

Q: Which protein stability index does the source give for KKVLNHGYDDDNHDYNVRSGERWL [I16N] here?
A: 3.24

Q: For KKVLNHGYDDDNHDYKVRSGERWL [I16K], which protein stability index is on record?
A: 3.49

Q: Which protein stability index does the source give for KKVLNHGYDDDNHDYGVRSGERWL [I16G] here?
A: 3.71

Q: With KKVLNHGYDDDNHDYHVRSGERWL [I16H] as the variant, how does the protein stability index read?
A: 3.23

Q: Which protein stability index does the source give for KKVLNHGYDDDNHDYCVRSGERWL [I16C] here?
A: 3.48

Q: Which protein stability index does the source give for KKVLNHGYDDDNHDYDVRSGERWL [I16D] here?
A: 3.84

Q: For KKVLNHGYDDDNHDYAVRSGERWL [I16A], which protein stability index is on record?
A: 3.73

Q: Which protein stability index does the source give for KKVLNHGYDDDNHDYMVRSGERWL [I16M] here?
A: 3.32

Q: Which protein stability index does the source give for KKVLNHGYDDDNHDYLVRSGERWL [I16L] here?
A: 3.09

Q: With KKVLNHGYDDDNHDYFVRSGERWL [I16F] as the variant, how does the protein stability index read?
A: 3.09

Q: For KKVLNTGYDDDNHDYIVRSGERWL [H6T], which protein stability index is on record?
A: 3.12

Q: For KKVLNSGYDDDNHDYIVRSGERWL [H6S], which protein stability index is on record?
A: 3.22

Q: Which protein stability index does the source give for KKVLNWGYDDDNHDYIVRSGERWL [H6W] here?
A: 2.01

Q: With KKVLNRGYDDDNHDYIVRSGERWL [H6R] as the variant, how does the protein stability index read?
A: 2.91

Q: For KKVLNYGYDDDNHDYIVRSGERWL [H6Y], which protein stability index is on record?
A: 3.12

Q: For KKVLNVGYDDDNHDYIVRSGERWL [H6V], which protein stability index is on record?
A: 2.84

Q: Which protein stability index does the source give for KKVLNHMYDDDNHDYIVRSGERWL [G7M] here?
A: 3.07

Q: Which protein stability index does the source give for KKVLNHKYDDDNHDYIVRSGERWL [G7K] here?
A: 3.3

Q: With KKVLNHAYDDDNHDYIVRSGERWL [G7A] as the variant, how does the protein stability index read?
A: 3.47

Q: With KKVLNHDYDDDNHDYIVRSGERWL [G7D] as the variant, how does the protein stability index read?
A: 3.4

Q: With KKVLNHSYDDDNHDYIVRSGERWL [G7S] as the variant, how does the protein stability index read?
A: 3.21

Q: With KKVLNHQYDDDNHDYIVRSGERWL [G7Q] as the variant, how does the protein stability index read?
A: 3.12

Q: For KKVLNHNYDDDNHDYIVRSGERWL [G7N], which protein stability index is on record?
A: 3.23

Q: With KKVLNHYYDDDNHDYIVRSGERWL [G7Y] as the variant, how does the protein stability index read?
A: 2.93

Q: Which protein stability index does the source give for KKVLNHRYDDDNHDYIVRSGERWL [G7R] here?
A: 3.31

Q: Which protein stability index does the source give for KKVLNHWYDDDNHDYIVRSGERWL [G7W] here?
A: 2.74

Q: For KKVLNHFYDDDNHDYIVRSGERWL [G7F], which protein stability index is on record?
A: 2.4

Q: Which protein stability index does the source give for KKVLNHVYDDDNHDYIVRSGERWL [G7V] here?
A: 2.77

Q: For KKVLNHCYDDDNHDYIVRSGERWL [G7C], which protein stability index is on record?
A: 2.27

Q: With KKVLNHEYDDDNHDYIVRSGERWL [G7E] as the variant, how does the protein stability index read?
A: 3.64

Q: Which protein stability index does the source give for KKVLNHIYDDDNHDYIVRSGERWL [G7I] here?
A: 2.22

Q: Which protein stability index does the source give for KKVLNHHYDDDNHDYIVRSGERWL [G7H] here?
A: 2.84

Q: With KKVLNHLYDDDNHDYIVRSGERWL [G7L] as the variant, how does the protein stability index read?
A: 2.24

Q: With KKVLNHTYDDDNHDYIVRSGERWL [G7T] as the variant, how does the protein stability index read?
A: 3.53

Q: Which protein stability index does the source give for KKVLNHPYDDDNHDYIVRSGERWL [G7P] here?
A: 3.15

Q: Which protein stability index does the source give for KKVLNHGYDDDNHTYIVRSGERWL [D14T] here?
A: 2.79

Q: With KKVLNHGYDDDNHCYIVRSGERWL [D14C] as the variant, how does the protein stability index read?
A: 2.64

Q: With KKVLNHGYDDDNHRYIVRSGERWL [D14R] as the variant, how does the protein stability index read?
A: 2.86

Q: Which protein stability index does the source give for KKVLNHGYDDDNHGYIVRSGERWL [D14G] here?
A: 2.71

Q: For KKVLNHGYDDDNHIYIVRSGERWL [D14I], which protein stability index is on record?
A: 2.37

Q: For KKVLNHGYDDDNHQYIVRSGERWL [D14Q], which protein stability index is on record?
A: 2.35

Q: With KKVLNHGYDDDNHNYIVRSGERWL [D14N] as the variant, how does the protein stability index read?
A: 3.12

Q: With KKVLNHGYDDDNHEYIVRSGERWL [D14E] as the variant, how does the protein stability index read?
A: 3.03

Q: With KKVLNHGYDDDNHKYIVRSGERWL [D14K] as the variant, how does the protein stability index read?
A: 3

Q: Which protein stability index does the source give for KKVLNHGYDDDNHYYIVRSGERWL [D14Y] here?
A: 2.55

Q: Which protein stability index does the source give for KKVLNHGYDDDNHLYIVRSGERWL [D14L] here?
A: 1.67

Q: Which protein stability index does the source give for KKVLNHGYDDDNHMYIVRSGERWL [D14M] here?
A: 2.58

Q: Which protein stability index does the source give for KKVLNHGYDDDNHVYIVRSGERWL [D14V] here?
A: 2.13

Q: With KKVLNHGYDDDNHFYIVRSGERWL [D14F] as the variant, how does the protein stability index read?
A: 2.21

Q: Which protein stability index does the source give for KKVLNHGYDDDNHAYIVRSGERWL [D14A] here?
A: 2.78

Q: Which protein stability index does the source give for KKVLNHGYDDDNHSYIVRSGERWL [D14S] here?
A: 2.82

Q: With KKVLNHGYDDDNHHYIVRSGERWL [D14H] as the variant, how does the protein stability index read?
A: 3.03

Q: With KKVLNHGYDDDNHWYIVRSGERWL [D14W] as the variant, how does the protein stability index read?
A: 1.85

Q: With KKVLNHGYDDDNHPYIVRSGERWL [D14P] as the variant, how does the protein stability index read?
A: 2.71

Q: Which protein stability index does the source give for KKVLNHGWDDDNHDYIVRSGERWL [Y8W] here?
A: 2.74

Q: With KKVLNHGIDDDNHDYIVRSGERWL [Y8I] as the variant, how does the protein stability index read?
A: 3.27

Q: For KKVLNHGCDDDNHDYIVRSGERWL [Y8C], which protein stability index is on record?
A: 3.24

Q: Which protein stability index does the source give for KKVLNHGQDDDNHDYIVRSGERWL [Y8Q] here?
A: 3.77

Q: For KKVLNHGNDDDNHDYIVRSGERWL [Y8N], which protein stability index is on record?
A: 4.15

Q: For KKVLNHGTDDDNHDYIVRSGERWL [Y8T], which protein stability index is on record?
A: 3.74

Q: For KKVLNHGRDDDNHDYIVRSGERWL [Y8R], which protein stability index is on record?
A: 4.28

Q: For KKVLNHGVDDDNHDYIVRSGERWL [Y8V], which protein stability index is on record?
A: 3.58

Q: Which protein stability index does the source give for KKVLNHGSDDDNHDYIVRSGERWL [Y8S] here?
A: 3.66

Q: Which protein stability index does the source give for KKVLNHGADDDNHDYIVRSGERWL [Y8A] here?
A: 3.82

Q: With KKVLNHGDDDDNHDYIVRSGERWL [Y8D] as the variant, how does the protein stability index read?
A: 3.87

Q: For KKVLNHGKDDDNHDYIVRSGERWL [Y8K], which protein stability index is on record?
A: 3.58

Q: With KKVLNHGFDDDNHDYIVRSGERWL [Y8F] as the variant, how does the protein stability index read?
A: 3.46

Q: For KKVLNHGLDDDNHDYIVRSGERWL [Y8L], which protein stability index is on record?
A: 3.36

Q: Which protein stability index does the source give for KKVLNHGMDDDNHDYIVRSGERWL [Y8M] here?
A: 3.48

Q: Which protein stability index does the source give for KKVLNHGHDDDNHDYIVRSGERWL [Y8H] here?
A: 4.27

Q: With KKVLNHGPDDDNHDYIVRSGERWL [Y8P] as the variant, how does the protein stability index read?
A: 3.24

Q: Which protein stability index does the source give for KKVLNHGGDDDNHDYIVRSGERWL [Y8G] here?
A: 3.56

Q: Which protein stability index does the source give for KKVLNHGEDDDNHDYIVRSGERWL [Y8E] here?
A: 3.71
